Assay results reported in the DeepSol protein solubility set.

assay: soluble on expression in E. coli; label from the status in PepcDB or PDB records

Row | Sequence | soluble on expression in E. coli
1 | MGSDKIHHHHHHMERDMICTPISYQNKTSAQTFSNFLKHTRTENNLSQEDLCGLLRQKSCLFDTLDSITISRWERGVNIPSLAKQSEIVEIFGSELFDIYREDKKFINEGLALINLFESNIERSDHPYYRNTPYRVEFIESHHHNFMALLQLSLVYESNPRLSFVSRNLSQPFFHGLSLVVAFSSGDQIVGHSLFCRSQGKIALEFMNDEVDLFEVINHNSQALPDTLMVFSSFGVTPYIENYMMSVYLNELAASRSLKFLSFNICDESLKRKLTQFKLPIFKVRTIEGCCKPIKNYSFFSSRTEVMANRNLLKLSVIPSSKSQTIDPIFFMQLETPI | not soluble
2 | MGSDKIHHHHHHMERLAQPSRFLQRKLFEVNLLKPVTVEKEAPIGEIRRILRDTGSRIVLVVNGEGRLEGVIYRSSVILVTSRKSEAKALDIMEEPAVVLKPSYSLEEAVFSMLKFDEWYAPVVNDANRLVGVLGLETPIRLLLEAGFYRGYTASDAMTRDVEYVLEGDSLTRVWEIMVERRYAGVPVVDQRMVVRGIVTQYDLIRKGYTRLGLESEAPPHRVRVESVMTRSVIYVAESDNLEDVARIMLDRGVGRVPVVKSRDSRVLTGIIDREDLVRLYFKSRGRASL | not soluble
3 | MGSDKIHHHHHHMERVLIIGALTFVGYHLVNKMIAEEVEVYGLDFDEFDSMTKINEEKLLLIGRNALFTYYSIRDEDGWRSVEEEKFDAVYFCLYEPNQQRGFRNERVILQYLKRMIRLCEEHKVKLNLISSIEVGNADESENKRLFSKVEEGLKKGEVQYSVFRVPTLYGPWQPSFMMYHQLMLSELGEKECHYAGEENGSDLLYVEDVCEYLWENGMNEEHLGIYNLLSGKKSLWKKGMNLLRAEDKVNKENAEERDGAAEDILIKRNTPLEYGLNKQLAHMKKYKELYEG | not soluble
4 | MGSDKIHHHHHHMETFGGQVGRQEVPESSIDRYRGKLPNQLLTYWAEHGWCGYGDGIFWTVNPQEYDAVVASWLEGTKFETFDAYHLIARSAFGDLYLWGEEIGASLKITSILSRYTTHKSLCLGSQMDKGLQSFILSRKVGSNDYGDLFRPARKKLGTLHHDEMYGFVPALMLGGADTLDHLEKVKAVEHLVLLSQLSDLESYDFQDL | not soluble
5 | MGSDKIHHHHHHMETIGQTLAKKDNHKYDTEKMTQAILSDQEIANFIAAHHLSKEQIKISLPKFNQYRLERTRFENHDQAYIAKGYQPLLVMNEGYADVAYKETKELIAAKKTQAISDRINVVSLPRSYKNISFDDINLDDVKRLDVFKRVADFVEQYPNPEQKGLYLYGDMGIGKSYLMAAMAHELSEQRGAATTLLHFPSFTIDVKNAINTGTVKKEIDAVKTADILILDDIGAEQSTSWIRDEVLQVILQYRMLEELPTFFTSNYSFKDLEAKLANIKGSDETWQAKRVMERIRYLAKEIHLEGENRR | not soluble
6 | MGSDKIHHHHHHMETPTQDMDVRWLYTQSQLKLREILPTNKTFDVIQISELVDPTDFISPNSVVLSVGIAFAETPDGLRDWAHRLADAGVIAIGFGSGLTFPQVPQALIDASLHLGLGLFEVPREIPFISITSSVRDEQTRRAGRLQQELLLEQERLNSIAISGGIEALCRAAADYLGGAVAIVDSDGRVACSITTDDLDALPQAVSRLNGSSQALTDATNFGFIHRMTRYGDRHHVLSVLMPTRPSEQHRALIRHCAGLADILLQRPEAMRDREIEVRSLAMSLLLGRSDDLATIHRVFADITDASGNIRPILITGNTPQSVRKALSSVATALYKQERALAHLRLAESTELLFLRGSRSVHNIVQLFGTAASGVRLCIGLPTRAENIDKKLIRELTATAKTLQLGTHAEPRDGTLLWLQNPELRKILKIRSRDTYDRLLDHDRTNNTELAPTLVSFTQHSGHIGDTAKELGIHRHTVRTRMIRIEEICEIDLNDPLTRAELLLVIATKEGDVEKQ | not soluble
7 | MGSDKIHHHHHHMETTKLGNLKLYGAGHAAGGAYHNVSIKGEGIVGEGLSAVGCRIYGTGLFLGKAETERLRVLGESECKGDLTAGKINIYGTMKVSGSLQFDRFNLKGQTEIGGNMTGESCDVKGKLSVIGDCETEMFHVTGCVDVSGLLNSGEIKLGLSHDINHVQEIGGTTITVKRRASFFSRKKGKLIADVIEGDRVYLENTEAAVVRGKEVIIGPGCSIGTIEYEYKCECDPHSQIKEKTKL | not soluble
8 | MGSDKIHHHHHHMEVASATNNPVQNPAGALAAPGNDAASLKNEFMTLMIAQIKNQDPTKPLNSAEYISQLAQFSQVESLEGMRKNQSNQMIMMENLGIVQSASLIGKNAMVPVSEFKLDGETVEGKVYLENAVEALDIEIVNSEGQVVHTMQLGAQAVGDIRFAIDPDELGLEKGQYEIKAKATLGENSLVAPTYIKAPIERIHFSSASGMMMAEMGHGVGVISVLNISEVS | not soluble
